Assay results reported in article PMC9017650.

Key:
[1] = molecular target: human FcγRIIIa receptor, V158 variants (human)
[2] = molecular target: recombinant human TNFα (human) (UniProt P01375); test: SPR
[3] = molecular target: Golimumab B (human); test: SPR; Biacore T200; anti-human Fc antibody immobilised on a CM5 chip, golimumab captured, TNFα as analyte at five concentrations (7.81–125 nM), 30 μL/min, 25°C, 1:1 Langmuir model, KD = Kd/Ka
[4] = molecular target: Golimumab A (human); test: as above

Substance	ADCC reporter gene assay, EC50 (Jurkat NFAT-luciferase cells with FcγRIIIa V158 as effector cells, CHO-K1/hmTNFα as target cells) [1] [µg/mL]	koff [2] [s⁻¹]	further results
Golimumab A (antibody)	0.15	–	–
Golimumab B (antibody)	0.152	–	–
recombinant human TNFα (from UniProt P01375 77-233) (ligand)	–	–	Kd [3]: 0.0106 nM; Kd [4]: 0.0124 nM

Further lines, with some results ahead:

ADCC reporter gene assay, EC50 (Jurkat NFAT-luciferase cells with FcγRIIIa V158 as effector cells, CHO-K1/hmTNFα as target cells) [1] [µg/mL]	koff [2] [s⁻¹]	Substance	further results
–	0.000164	Golimumab A (from UniProt P01857)	–
–	0.000149	Golimumab B (from UniProt P01857)	–
